Values quoted from earlier work as cited in PMC3786701.

Molecular target: SNARE complex (Rattus norvegicus) (UniProt P32851)
Chain of UniProt P32851 (P32851 whole entry, chain 1 of 3): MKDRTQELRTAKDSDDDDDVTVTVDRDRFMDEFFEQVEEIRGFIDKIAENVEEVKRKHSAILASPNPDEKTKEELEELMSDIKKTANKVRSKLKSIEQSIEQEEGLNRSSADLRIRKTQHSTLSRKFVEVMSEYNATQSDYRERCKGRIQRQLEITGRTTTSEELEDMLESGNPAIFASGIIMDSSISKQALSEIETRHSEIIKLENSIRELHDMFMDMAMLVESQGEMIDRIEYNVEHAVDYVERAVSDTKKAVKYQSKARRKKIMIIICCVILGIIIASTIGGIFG
Chain of UniProt P32851 (B2RAU4 whole entry, chain 2 of 3, further chain): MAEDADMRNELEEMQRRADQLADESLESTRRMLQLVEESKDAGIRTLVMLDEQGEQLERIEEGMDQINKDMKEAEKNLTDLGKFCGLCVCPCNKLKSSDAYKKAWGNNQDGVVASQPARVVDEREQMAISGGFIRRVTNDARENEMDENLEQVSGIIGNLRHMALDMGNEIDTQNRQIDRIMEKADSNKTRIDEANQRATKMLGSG
Chain of UniProt P32851 (P63044 2-116, chain 3 of 3, further chain): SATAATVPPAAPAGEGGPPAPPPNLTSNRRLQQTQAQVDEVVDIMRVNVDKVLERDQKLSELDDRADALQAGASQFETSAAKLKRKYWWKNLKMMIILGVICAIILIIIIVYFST

Kd: 1000 nM
Substance: synaptotagmin-1 C2AB (from UniProt P21707)
